How the values were obtained:
[1] = Toxicity assessment in r-Tinagl1 treated mice (body weight, CBC, H&E and Alcian blue staining, ALT, AST); type: in vivo; details: ALT and AST activity
Description: (§1) To test if recombinant Tinagl1 protein (r-Tiangl1) treatment would slow tumor progression, full length recombinant human Tinagl1 with 6×His tag at the C-terminus (r-Tinagl1) was expressed in HEK293T cells and r-Tinagl1 was purified from the culture media using Ni^2+-NTA purification system. r-Tinagl1 was used to treat orthotopically implanted mammary tumors.

Tinagl1-EGFR interaction = molecular target: T1, Tinagl1-EGFR interaction (Homo sapiens, UniProt P00533); experiment: Competition IP for Tinagl1-HA / GFP-EGFR interaction in HEK293T lysate; type: binding
T1 construct: host or cells: HEK293T
Protocol: FIG. 13C is an image of IP and WB assays where HEK293T cells co-expressing Tinagl1-HA and GFP-EGFR were lysed and divided into multiple groups, then PBS or indicated amount of proteins was added into each group, then IP followed by WB assays were performed.
FIG. 13D is a graph quantifying the ability of the indicated protein to compete with Tinagl1-EGFR interaction, by measuring GFP-EGFR level in the groups from FIG. 13C.
Whether Tinagl1 inhibits EGFR activation in a similar manner was tested. […] Whether Tinagl1 and EGF compete with each other to interact with EGFR was tested.

EGFR = EGFR (Homo sapiens, UniProt P00533); experiment: EGF-induced EGFR activation in LM2 cells (WB); type: cell-based; details: 1 hour pre-treatment, then EGF 10 min
Protocol: FIG. 11A is an image of WB analyses where LM2 cells with or without 1 hour pre-treatment of the indicated amount of r-Tinagl1 were then treated with indicated amount of EGF for another 10 min, then lysed.
(§2) For WB analysis, cells were collected and lysed with IP lysis buffer described above. After boiled with SDS laemmli buffer, the samples were resolved with SDS-PAGE gel and immunoblotted with standard protocols.
Cells were treated with r-Tinagl1 and the activity of EGFR and integrin/FAK signaling pathways was evaluated. To test EGFR activation, the LM2 cells were subjected to EGF, r-Tinagl1, or EGF/r-Tinagl1 combined treatment. […] Referring to FIGS. 11B and 11C, EGF-dependent activation of EGFR was similarly attenuated in cells expressing Tinagl1 compared to control cells.

LM2 cells [2] = experiment: Experimental lung metastasis after intravenous injection of LM2 cells, BLI and nodule count; type: in vivo, NSG mice
Protocol: FIG. 6 is a graph of lung metastasis burden measured by BLI every week, for NSG mice under one of three treatment regimens: 1) PBS immediately following injection (510), 2) PBS for the first two weeks followed by r-Tinagl1 treatment (520), and 3) r-Tinagl1 immediately after injection (530).
Referring to FIG. 6, to further evaluate the therapeutic potential of r-Tinagl1 treatment during metastasis, LM2 cells were injected intravenously to generate lung metastasis, and the mice were separated into three distinct treatment groups: 1) PBS immediately following injection (510), 2) PBS for the first two weeks followed by r-Tinagl1 treatment (520), and 3) r-Tinagl1 immediately after injection (530).
(§3) For xenograft studies, 8-weeks immunocompromised NOD Scid Gamma (NSG) or immunocompetent FVB females were used. Cells were suspended in 10 μl of PBS for mammary gland injection (MFP), or were suspended in 100 μl of PBS for intravenous injection. For human patient-derived xenograft (PDX, HCL001, kindly provided by Dr. Alana Welm) study, we followed the standard protocol for PDX transplantation, maintenance and digestion of the tumors (DeRose et al., 2011). 2×10^4 cells were suspended in 10 μl of PBS and subjected to MFP injection. For recombinant Tinagl1 (r-Tinagl1), ATN-161, Erlotinib treatments, the mice were injected with 30 μg/mouse, 30 μg/mouse, and 100 mg/kg respectively twice per week via tail-vein. Primary tumors were quantified once per week via caliper measurement. All cell lines used for lung metastasis experiments were stably labeled with a firefly luciferase expressing vector and were monitored by weekly bioluminescent imaging (BLI). At protocol-defined endpoints, lungs were dissected and fixed in bouin's solution and the metastatic lesions were counted.

[3] = tested on: orthotopically implanted mammary tumors; experiment: r-Tinagl1 treatment of orthotopically implanted mammary tumors; type: in vivo, mice; details: continuous treatment of r-Tinagl1 for 7 weeks
Description: as §1
as §3, with “For recombinant Tinagl1 (r-Tinagl1), ATN-161, Erlotinib treatments, the mice were injected with 30 μg/mouse, 30 μg/mouse, and 100 mg/kg respectively twice per week via tail-vein.” left out

LM2 cells [4] = experiment: LM2 orthotopic tumors, single or combined agent treatment; type: in vivo, NSG female mice
Protocol: FIG. 17A is an image of WB analyses where NSG female mice were injected with 10^4 LM2 cells by MFP injection, and intravenously treated with the indicated reagents twice per week when tumors reached to 2 mm in dimeter, then after 5 weeks of the treatments, the primary tumors of each group were collected and activation of EGFR and FAK in primary tumor of each group were tested by WB.
FIG. 17B is a graph illustrating tumor volumes of each treatment group from FIG. 17A.
FIG. 17C is a graph, quantifying ex vivo BLI results where lungs in mice from FIG. 17A were collected and spontaneous metastasis was examined at the endpoint.
Two molecular targeting reagents, ATN-161 (ATN) and Erlotinib (Erlo) were employed. ATN is an integrin α5β1 antagonist that inhibits the integrin signaling pathway and slows tumor progression. Erlotinib is a well-established small molecular inhibitor of EGFR and is clinically approved for cancer treatment. Mice orthotopically implanted with LM2 cells were split into 6 groups after the tumors reached 2 mm in diameter and subjected to various single or combined agent treatments twice per week [(1) PBS; (2) ATN 30 μg/mouse; (3) Erlo 100 mg/kg; (4) r-Tinagl1 30 μg/mouse; (5) ATN and Erlo; and (6) ATN, Erlo, and r-Tinagl1]. Referring to FIG. 17A, the inhibition of integrin/FAK and EGFR upon each treatment was validated by western blotting and TIC staining.
as §3

SUM159-M1a = SUM159-M1a orthotopic tumors, single or combined agent treatment; type: in vivo, NSG female mice; details: SUM159-M1a model
Protocol: FIG. 17D is an image of WB analyses where NSG female mice were injected with 10^4 M1a cells by MFP injection, and treated with the indicated reagents twice per week when tumors reached to 2 mm in diameter, then after 5 weeks of the treatments, the primary tumors of each group were collected and activation of EGFR and FAK in primary tumor of each group was tested by WB.
FIG. 17E is a graph illustrating tumor volumes of each treatment group from FIG. 17D.
as §3, with “For recombinant Tinagl1 (r-Tinagl1), ATN-161, Erlotinib treatments, the mice were injected with 30 μg/mouse, 30 μg/mouse, and 100 mg/kg respectively twice per week via tail-vein.” left out

FAK = experiment: FN- or EGF-dependent FAK phosphorylation (WB); type: cell-based; details: tested at 10, 100, 1000 and 10,000 ng/mL
Description: as §2
FN is the major ligand for integrin α5β1 and αvβ1, and triggers integrin/FAK signal pathway after binding. FN was employed to evaluate the effects of Tinagl1 on the integrin/FAK pathway. […] Likewise, the activation of FAK by FN was attenuated in the cells overexpressing Tinagl1.

B1: r-Tinagl1: full length recombinant human Tinagl1 with 6×His tag at the C-terminus [SEQ ID NO.: 24], expressed in HEK293T cells (protein, listed as Homo sapiens)
chain: MWRCPLGLLLLLPLAGHLALGAQQGRGRRELAPGLHLRGIRDAGGRYCQEQDLCCRGRADDCALPYLGAICYCDLFCNRTVSDCCPDFWDFCLGVPPPFPPIQGCMHGGRIYPVLGTYWDNCNRCTCQENRQWQCDQEPCLVDPDMIKAINQGNYGWQAGNHSAFWGMTLDEGIRYRLGTIRPSSSVMNMHEIYTVLNPGEVLPTAFEASEKWPNLIHEPLDQGNCAGSWAFSTAAVASDRVSIHSLGHMTPVLSPQNLLSCDTHQQQGCRGGRLDGAWWFLRRRGVVSDHCYPFSGRERDEAGPAPPCMMHSRAMGRGKRQATAHCPNSYVNNNDIYQVTPVYRLGSNDKEIMKELMENGPVQALMEVHEDFFLYKGGIYSHTPVSLGRPERYRRHGTHSVKITGWGEETLPDGRTLKYWTAANSWGPAWGERGHFRIVRGVNECDIESFVLGVWGRVGMEDMGHHVDHHHHHH
modifications: C-terminal 6xHis tag
hematologic, GI tract, and liver toxicity [1]: no significant hematologic, GI tract, and liver toxicity
hematologic, GI tract, and liver toxicity ([1]; listed as recombinant Tinagl1 protein): without causing significant toxicity
competition with Tinagl1-HA to interact with EGFR (Tinagl1-EGFR interaction): competed
EGF-induced EGFR activation (EGFR): dramatically attenuated
metastatic growth (BLI) (LM2 cells [2]; PBS for the first two weeks followed by r-Tinagl1 treatment): dramatically decreased metastatic growth
number of lung metastasis nodules (LM2 cells [2]; both r-Tinagl1 treatment groups, end of experiment): significantly reduced number of lung metastasis nodules
metastatic growth (BLI) (LM2 cells [2]; r-Tinagl1 immediately after injection (continuous)): significantly reduced metastatic growth
primary tumor growth [3]: significantly inhibited
spontaneous lung metastasis [3]: significantly inhibited
primary tumor growth (LM2 cells [4]; LM2, twice per week, ATN 30 μg/mouse, Erlo 100 mg/kg, r-Tinagl1 30 μg/mouse): significantly suppressed primary tumor growth
spontaneous lung metastasis (LM2 cells [4]; LM2 tumors, ex vivo BLI at endpoint): reduced spontaneous lung metastasis
lung metastasis (SUM159-M1a): stronger effect than single treatment of Erlotinib
FN-dependent activation of FAK signaling (FAK phosphorylation at Tyr397) (FAK): significantly reduced FN-dependent activation of FAK signaling
